Assay results: patent publication US20190112392A1 (Ablynx, published 2019)

Columns and labels:
human CD20 on cells [1] = target: T1, human CD20 on cells (human, UniProt P11836 1-297); experiment: cell-based or functional assay
T1 sequence (looked up): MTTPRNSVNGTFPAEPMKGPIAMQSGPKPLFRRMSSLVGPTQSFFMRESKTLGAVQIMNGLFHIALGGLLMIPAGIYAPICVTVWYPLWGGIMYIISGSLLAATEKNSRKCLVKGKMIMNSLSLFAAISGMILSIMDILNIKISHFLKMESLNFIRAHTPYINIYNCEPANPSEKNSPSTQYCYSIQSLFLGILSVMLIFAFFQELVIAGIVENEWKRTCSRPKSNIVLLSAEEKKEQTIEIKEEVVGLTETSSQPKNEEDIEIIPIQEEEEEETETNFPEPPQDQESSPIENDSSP

[2] = target: T2, T cell receptor alpha/beta on primary cynomolgus T cells (cynomolgus); experiment: cell-based or functional assay
[3] = target: T2, T cell receptor alpha/beta on primary …; experiment: cell-based or functional assay; remark: listed apart in the source
human CD20 on cells [4] = target: T1, human CD20 on cells; experiment: cell-based or functional assay; remark: listed apart in the source
[5] = target: T2, T cell receptor alpha/beta on primary …; experiment: cell-based or functional assay; remark: listed apart in the source
[6] = target: T2, T cell receptor alpha/beta on primary …; experiment: cell-based or functional assay; remark: listed apart in the source
human CD20 on cells [7] = target: T1, human CD20 on cells; experiment: flow cytometry, Ramos cells
[8] = target: T3, T cell receptor alpha/beta on purified primary human T cells (human, UniProt P01848 1-140; P01850 1-176); experiment: flow cytometry, purified primary human T cells
T3 construct: whole, on cells; also called human primary T cells
T3 TCR alpha (looked up): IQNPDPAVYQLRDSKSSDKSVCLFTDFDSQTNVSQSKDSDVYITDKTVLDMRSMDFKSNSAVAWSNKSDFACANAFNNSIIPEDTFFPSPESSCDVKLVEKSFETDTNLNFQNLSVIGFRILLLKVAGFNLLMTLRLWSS
T3 TCR beta (looked up): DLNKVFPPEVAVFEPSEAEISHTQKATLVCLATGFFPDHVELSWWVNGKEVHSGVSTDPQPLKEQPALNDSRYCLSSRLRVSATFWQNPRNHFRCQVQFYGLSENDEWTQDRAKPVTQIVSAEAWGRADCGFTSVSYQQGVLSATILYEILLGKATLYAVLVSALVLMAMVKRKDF

[9] = target: T3, T cell receptor alpha/beta on purified …; experiment: flow cytometry, purified primary human T cells; purified primary human T cells
human CD20 on cells [10] = target: T1, human CD20 on cells; experiment: flow cytometry on Raji cells, MCF (Mean PE)
human CD20 on cells [11] = target: T1, human CD20 on cells; experiment: flow cytometry on Ramos cells, MCF (Mean PE)
[12] = target: T4, soluble recombinant cynomolgus TCR alpha/beta-zipper protein (cynomolgus/rhesus monkey); experiment: ELISA, 2 µg/mL coated soluble recombinant cynomolgus TCR α/β-zipper protein, OD 450 nm
T4 construct: Made in house in CHOK1SV cells; extracellular domains fused to a zipper protein; also called cynoTCR-zipper protein; not shown: zipper protein (O'Shea et al. 1993)
T4 V domain 1: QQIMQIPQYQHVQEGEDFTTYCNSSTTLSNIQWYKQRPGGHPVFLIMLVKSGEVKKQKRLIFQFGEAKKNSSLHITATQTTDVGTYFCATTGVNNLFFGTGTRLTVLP
T4 V domain 2: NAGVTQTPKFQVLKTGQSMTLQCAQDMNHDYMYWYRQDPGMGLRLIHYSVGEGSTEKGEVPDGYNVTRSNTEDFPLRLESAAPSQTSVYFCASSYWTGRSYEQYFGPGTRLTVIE
Experimental: Quality of the TCR α/β zipper proteins was assessed in an ELISA binding assay. Maxisorp 96-well ELISA plates (Nunc) were coated with 2 μg/mL soluble recombinant human TCR α/β (2XN9)-zipper protein or soluble recombinant cynomolgus TCR α/β-zipper protein. After an overnight incubation, plates were washed and blocked with PBS+1% casein for 1 h at room temperature. Next, plates were incubated with serial dilutions of either a functional flag tagged Nanobody or the functional mouse IgG anti-non-human primate/Rat TCRα/β antibody, clone R73 (eBioscience 16-5960) for 1 h at room temperature while shaking, washed again and incubated with mouse anti-flag-HRP (Sigma, #A8592) respectively rabbit anti-mouse-HRP (Dako, # P0260). After 1 h, TMB One Solution (Promega #G7431) was added. The reaction was stopped with 2M H₂SO₄ and the dose dependent binding was determined by measuring the OD at 450 nm using the Tecan sunrise 4 (FIG. 2).

B1: T017000076 (bispecific antibody)
chain: EVQLVESGGGLVQPGGSLRLSCTFSGGTFSSYTMGWFRQAPGKEREFVAEVRWGGVTTYSNSLKDRFSISEDSVKNAVYLQMNSLKPEDTAVYYCAAVRQMYMTVVPDYWGQGTLVTVSSGGGGSGGGGSGGGGSGGGGSGGGGSGGGGSGGGGSEVQLVESGGGLVQPGGSLRLSCVASGDVHKINFLGWYRQAPGKEREKVAHISIGDQTDYADSAKGRFTISRDESKNMVYLQMNSLKPEDTAVYFCRAFSRIYPYDYWGQGTLVTVSSGAADYKDHDGDYKDHDIDYKDDDDKGAAHHHHHH
notes: CD20 x TCR bispecific Nanobody construct (cluster A); entry includes the FLAG3-HIS6 tag; also called 20CD019C07-35GS-T0170056G05-FLAG3-HIS6
IC50, xCELLigence human T cell mediated CHO-K1 CD20 killing assay, E:T 30:1, 44 h (human CD20 on cells [1]): 0.36 nM
IC50, cynomolgus T cell dependent B cell (Ramos) killing assay [2]: 520 pM
IC50, xCELLigence cynomolgus T cell mediated CHO-K1 human CD20 killing assay [3]: 140 pM
IC50, flow cytometry based human T cell mediated Ramos killing assay, E:T 10:1 (human CD20 on cells [4]): 300 pM
IC50, flow cytometry based cynomolgus T cell mediated B cell (Ramos) killing assay [5]: 309 pM
IC50, xCELLigence cynomolgus T cell mediated CHO-K1 human CD20 killing assay, E:T 30:1 [6]: 670 pM
EC50 (human CD20 on cells [7]): 1.8 nM
EC50 [8]: 130 nM

B2: T017000068 (bispecific antibody)
chain: EVQLVESGGGLVQPGGSLRLSCTFSGGTFSSYTMGWFRQAPGKEREFVAEVRWGGVTTYSNSLKDRFSISEDSVKNAVYLQMNSLKPEDTAVYYCAAVRQMYMTVVPDYWGQGTLVTVSSGGGGSGGGGSGGGGSGGGGSGGGGSGGGGSGGGGSEVQLVESGGGLVQPGGSLRLSCITSGETFKINIWGWYRQAPGKQRELVASLTIGGATNYADSVKGRFTISEDSAKNTVYLQMNSLKPEDTAVYFCNAKSRLYPYDYWGQGTLVTVSSGAADYKDHDGDYKDHDIDYKDDDDKGAAHHHHHH
notes: CD20 x TCR bispecific Nanobody construct (cluster B); entry includes the FLAG3-HIS6 tag; also called 20CD019C07-35GS-T0170055C07-FLAG3-HIS6
IC50, xCELLigence human T cell mediated CHO-K1 CD20 killing assay, E:T 30:1, 44 h (human CD20 on cells [1]): 13 nM
IC50, flow cytometry based human T cell mediated Ramos killing assay, E:T 10:1 (human CD20 on cells [4]): 1000 pM
EC50 (human CD20 on cells [7]): 1.8 nM
EC50 [9]: 6.2 nM

B3: anti-CD20 Nanobody (VHH)
VHH: EVQLVESGGGLVQPGGSLRLSCTFSGGTFSSYTMGWFRQAPGKEREFVAEVRWGGVTTYSNSLKDRFSISEDSVKNAVYLQMNSLKPEDTAVYYCAAVRQMYMTVVPDYWGQGTLVTVSS
EC50 (read off the curve) (human CD20 on cells [10]): ~20 nM
EC50 (read off the curve) (human CD20 on cells [11]): ~9 nM

B4: cAblys (VHH)
VHH: DVQLQASGGGSVQAGGSLRLSCAASGYTIGPYCMGWFRQAPGKEREGVAAINMGGGITYYADSVKGRFTISQDNAKNTVYLLMNSLEPEDTAIYYCAADSTIYASYYECGHGLSTGGYGYDSWGQGTQVTVSS
notes: also called cAblys3; irrelevant anti-egg lysozyme Nanobody
binding result [12]: no binding (tested: 1e-6 M)
